Experimental findings from US20260258115A1 (MAPP BIOPHARMACEUTICAL, published 2026) are described below.

Sequences and labels used below:
B1: ADI-41386 (antibody, V domains shown)
VH: QVQLVQSGAEVKKPGASVKVSCKASGYTFTGNYIHWVRQAPGQGLEWMGGINPNSGATNYARKFQGRISMTRDTSINTAYMEVSSLRSDDTATYYCARDAPPVVIPAAIHWFDAWGQGTLVTVSS
VL: SYELTQPPSASGTPGQRVTISCSGSSSNIGRNTVNWYQQFSGTAPRLLIYRTNQRPSGVPDRFSGSKSGTSASLVISGLQSEDEADYYCASWHDTLNDVVFGGGTKLTVL
B2: ADI-41424 (antibody, V domains shown)
VH: QVQLVQSGAEVREPGASVKVSCKPSGYTFANYGISWVRQAPGQGLEWMAWISAYNGNTNYAPKVQGRVSVTTDSSTGIGYMELRSLRSDDTAVYYCVRDTPAIAGAATLDFWGQGTLVTVSS
VL: DIVLTQSPLSLAVTPGQSASISCRSRQSHVFSDGNTYVSWFQQRPGRSPRRLIYRVSYRDSGVPDRFSGSGSGSDFTLRISRVEAEDVGVYYCMQGTHWPRTFGQGTKLEIK
B3: ADI-41394 (antibody, V domains shown)
VH: QVQLVQSGAEVKKPGSSVKVSCKASGGTFNTYAISWVRQAPGQGLEWMGGIIPILGVSNYAQRFQGRVTFSADELTNTAYMELSSLRSEDTAVYFCARPVGAYTLGDAFEIWGRGTTVTVSS
VL: QPVLTQSSSASASLGSSVKLTCTLSSGHSDFIIAWHQQQPGKAPRYLMKFEGNGRYSKGSGIPDRFSGSSSGADRCLTISNLQSEDEADYYCETWDSNTHVVFGGGTKLTVL
B4: ADI-41433 (antibody, V domains shown)
VH: EVQLLESGGGAVQPGRFLRLSCAASGFTFRSYGMHWVRQAPGKGLEWVAVISYDGSDKYYADSVKGRFTISRDNSKNTLFLLMNGLRAEDAAVYYCAKDIASAGTLRGSDVWGQGTMVTVSS
VL: QPVLTQPRSVSGSPGQSVTISCTGTSSDVGGFNYVSWYQQHPGKAPKLMIYDVRVRPSGVPDRFSGSKSGNTASLTISGLQGEDEADYYCCSYTVTYTLVFGGGTKLTVL
B5: ADI-41417 (antibody, V domains shown)
VH: QVQLVESGGGLVKPGGSLRLSCAASGFTFSSYSMNWVRQAPGKGLEWVSSISAGSSYIYYADSLKGRFTISRDNAKNSLYLQMNSLRAEDTAVYYCARVNTHYYDSSAYHNFDSWGQGTLVTVSS
VL: QPVVTQPPSVSGAPGQRVTISCTGSSSNIGAGYDVHWYQQLPGTAPKLLIYGNTNRPSGVPERFSGSKSGTSASLAITGLQAEDEADYYCQSYDTNLSAPWVFGGGTKLTVL
B6: ADI-41362 (antibody, V domains shown)
VH: EVQLVESGGGLVQPGGSLRLSCAASGFTFSDHWMNWVRQTPGKGLEWVANIKPDGRETYYVDSVKGRFTISRDNSKKSVYLQMNSLRAEDTAVYYCVRDGHIVVVTAVPPGFFDLWGRGTLVTVSS
VL: DIQVTQSPSSLSASVGDRVTITCQASQDLTKYLNWYQQKPGKAPKLLIYDISNLETGVPSRFSGSGFGTEFTLTISSLQPEDVATYYCQQYQNLPYTFGQGTKVEIK
B7: ADI-41423 (antibody, V domains shown)
VH: QVQLVESGGGLVKPGGSLRLSCAASGFTFSSYSMNWVRQAPGKGLEWVSSISSSSSYIYYADSVKGRFTISRDNAKNSLYLQMNSLRAEDTAVYYCARDPSSSWNRNDYWGQGTLVTVSS
VL: QSVLIQPASVSGSPGQSITISCTGTSSDVGGYNYVSWYQQHPGKAPKLMIYDVSNRPSGVSNRFSGSKSGNTASLTISGLQAEDEADYYCSSYTSSSTLVVFGGGTKVTVL
B8: ADI-41359 (antibody, V domains shown)
VH: EVQLVESGGGLVKPGGSLRLSCAASGFTISGYSMDWVRQAPGKGLEWVSSISSSSSYIHYADSVKGRFTISRDNAKNSLYLQMNSLRAEDTAVYYCATNPREGGAFDIWGQGTTVTVSS
VL: QSVLTQPPSMSGAPGQRVTISCTGSSSNIGAGYDVHWYQQLPGTAPKLLIYNNSNRPSGVPDRFSASKSGTSASLAITGLQAEDEADYYCQSYDSSLSGYVFGTGTRVTVP
B9: ADI-41396 (antibody, V domains shown)
VH: EVQLVESGGGLVNPGGSLRLSCVVSGFAFSSYGMNWVRQAPGKGLEWVSSISASSSYIDYADSVKGRFIISRDNAKNSLHLQMNSLRAEDTAVYYCARLGYDSSTYYTNWFDPWGRGTLVTVSS
VL: QSVVTQEPSVSGAPGQRVTISCTGSSSNIGTGYDVHWYQQLPGAAPKLLIYGNSNRPSGVPDRISGSKSGTSASLAITGLQAEDEADYYCQSYDSSLSGYVFGTGTKVTVL
B10: ADI-41358 (antibody, V domains shown)
VH: EVQLVESGGGLVKPGGSLRLSCEASGFTLTSYSMNWVRQAPGKGLEWVSSISSSSTYIHYADSVKGRFTISRDNAKNSLYLQMNSLRAEDTAVYYCARDKVMVTKYNGMDVWGQGTTVTVSS
VL: QSVLTQPPAVSGAPGQRVTISCTGSSSNIGAGHDVHWYQQLPGTAPKLLIYGNSNRPSGVPDRFSGSKSGTSASLAITGLQAGDEADYYCQSYDSSLSGSLFGGGTKLTVL
B11: ADI-41397 (antibody, V domains shown)
VH: EVQLVESGGGLVKPGGSLRLSCAASGFKFSSYYLNWVRQAPGKGLEWVSSISGGSSYINYADSVKGRFTISRDNAKNTLDLQMSNLRAEDTAVYYCARVVGATGPLYFDLWGRGTLVTVSS
VL: QSVLTQPPSVSGAPGQRVTISCTGSSSNIGAGYDVHWYQQFPGTAPKLLIYGNNNRPSGVPDRFSGSKSGTSASLAITGLQAEDEADYYCQSYDSSLSGYVFGAGTKVTVL
B12: ADI-41390 (antibody, V domains shown)
VH: EVQLVESGGGLVKPGGSLRLSCAASGFSSSSYFMNWVRQAPGKGPEWVSSISGSSSFINYADSVKGRFTISRDNAKNSLYLQMNSLRAEDTAVYYCARAVLPAGVGGYWFDSWGQGTLVTVSS
VL: QSVVTQPPSVSGAPGQRVTISCTGSSSNIGAGYDVHWYQHLPGRAPKLLIYGNSNRPSGVPDRFSGSKSGTSASLVITGLQAEDEADYCCQSYDSSLSGAVFGGGTQLTVL
B13: ADI-41382 (antibody, V domains shown)
VH: EVQLVESGGGLVQPGRSLRLSCAASGFTFDDYAMHWVRQAPGKGLEWVSGISWSGDTRGYAESVKGRFTITRDNAKKYLYLQMNSLRAEDTAFYYCAKDAYYFGSGNEKFYYGMDVWGQGTTVTVSS
VL: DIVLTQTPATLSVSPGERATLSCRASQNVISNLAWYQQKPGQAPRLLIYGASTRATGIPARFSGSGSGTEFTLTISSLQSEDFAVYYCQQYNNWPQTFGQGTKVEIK
B14: ADI-41357 (antibody, V domains shown)
VH: EVQLVESGGGLVQPGGSLRLSCAASGFTFSTYGMNWVRQAPGKGLEWVSYIGGSGRIIYYADSVKGRFTISRDNAKNSLYLQMNSLRAEDTAVYYCARDQHIVLVTGSTPDYWGQGTLVTVSS
VL: EIVLTQSPSSLSASVGDRVTITCRASHAISNYLAWFQQKPGKAPKSLIYAASTLQSGVPSKFSGSGSGTDFTLTISSLQPEDFATYYCQQYSSYPLTFGGGTKVEIK
B15: ADI-41409 (antibody, V domains shown)
VH: QVQLVQSGAEVKKPGASVKVSCKASGYTFTNYGISWVRQAPGQGLEWMGWISAYNGNTNYAQKFQDRVTMTTDTSTSTAYMELRSLRYDDTAVYYCARDTPGEYASAMFDHWGQGTLVTVSS
VL: DIVMTQSPLSLPVTLGQPASISCRSSQSLVYSDGNTYLSWFQQRPGQSPRRLIYKVSNRDSGVPDRFSGSGSGTDFTLKISGVEAEDVGVYYCMQGTHWPPTFGQGTKLEIK
B16: ADI-41408 (antibody, V domains shown)
VH: QVQLVESGAEVKKPGESLKISCRDSGYSFSSFWIGWVRQMPGKGLEWVGIIYPGDSDIRYSPSFQGRVTISADKSISTAYLQWRSLKASDSAMYYCARSEKLGSFDRWGQGTLVTVSS
VL: DIQMTQSPSSLSASVGDRVTITCQANRDISNCLNWYQQRPGKAPELLIYDASYLETGVPSRFTGSGSGTDFTFTISSLQPEDIATYYCQQYDNLLFTFGPGTKVEIK
B17: ADI-41399 (antibody, V domains shown)
VH: QVQLVQSGAEVKKPGASVKVSCKASGYTFTTFAIHWVRQAPGQRLEWMGWINAGNGNTKYSQKFQGRVTITRDTSASTAYMELSSLRSEDTAVYYCARPEISSSSLNEKDDYWGQGTLVTVSS
VL: QPVLTQPASVSGSPGQSITISCTGTSSDVGAYDFVSWYQQHPGKAPKFMIYEVSHRPSGVSNRFSGSKSGNTASLTISGLQAEDEADYYCSSYTTSNTLVFGGGTKLTVL
B18: ADI-41363 (antibody, V domains shown)
VH: QVQLVQSGAEVKKPGSSVKVSCKASGGTFSSYAITWVRQAPGQGLEWMGGIIPLFGTAKYAQQFQGRVTITADESTSTAYMELSSLRSEDTAVYYCARDGEVCTNGFCWFLDWGLGTLVTVSS
VL: DIRVTQSPSSLSASVGDRVTITCQASQDISNYLNWYQQKPGKAPKLLIYDASKLETGVPSRFSGSGSGTDFTFTISSLQPEDIATYYCQNYGNFPHFGGGTKLEIK
B19: ADI-41380 (antibody, V domains shown)
VH: QVQLVQSGAEVKKPGESLKISCKGSGYSFTSYWIGWVRQMPGKGLEWMGIIYPGDSDTRYSPSFQGQVTISADKSISTAYLQWSSLKASDTAMYYCASSRAYYDILTGYYVASAETQTKAAFDIWGQGTTVTVSS
VL: DIQVTQSPSSLSASVGDRVTITCQASQDISNYLNWYQQKPGKAPKLLIYDASNLETGVPSRFSGSGSGTDFSFTISSLQPEDIATYYCQQYDNLITFGQGTKVEIK
B20: ADI-41364 (antibody, V domains shown)
VH: EVQLLESGAEVKKPGASVKVSCKASGYTFTDHSIHWVRQAPGRGLEWMGWFNPHTGVTDYAQKFQGWVTMTSDTSISTAYMELSSLKSDDTAIYFCARDQWETDGAYFLDYWGQGTLVTVSS
VL: QSALTQPASVSGSPGQSITISCTGTSSDVGNFKLVSWYQQHPGKAPKLMIYEGNKRPSGVSNRFSGSKSGNTASLTISGLQAEDEADYYCCSSAVSSTFFGTGTKLTVL
B21: ADI-41353 (antibody, V domains shown)
VH: EVQLVESGVEVKKPGESLKISCRGSGYSFHNYWIAWVRQKPGKGLEYMGTIYVDDSDTIYSPSFQGEVTISADKSINTAYLQWNSLKASDTANYYCARQMDFYFDVWGRGTLVTVSS
VL: SYELTQPPSVSVSPGQTARITCSGDPLPRESAYWYQQKPGQAPVVVIFNDIERPLGIPERFSGSRSGTTVTLTISGAQAEDEADYYCQSADSRKTFVFGSGTKLTVL

This assay addresses RSV fusion glycoprotein (RSV F) on RSV-A2 virus (respiratory syncytial virus, UniProt P03420 26-574). Nature of the assay: cell-based or functional assay.
As to B1, the “Neutralization IC50 (RSV subtype A)” value was over 25 µg/mL. As for B2, the “Neutralization IC50 (RSV subtype A)” value came out at 0.28 µg/mL. The figure for B3 is over 25 µg/mL; for B4 it is over 25 µg/mL. As for B5, the figure is 0.71 µg/mL.

As for B6, the “Neutralization IC50 (RSV subtype A)” value is 0.911 µg/mL. The figure for B7 is over 25 µg/mL; for B8 it is over 25 µg/mL; for B9 it is 1.37 µg/mL.

In the case of B10, the “Neutralization IC50 (RSV subtype A)” value was determined as 0.389 µg/mL. The figure for B11 is 0.09 µg/mL. The figure for B12 is 0.62 µg/mL; for B13 it is 0.02 µg/mL; for B14 it is over 25 µg/mL. As for B15, the “Neutralization IC50 (RSV subtype A)” value came out at 0.29 µg/mL. The figure for B16 is over 25 µg/mL; for B17 it is over 25 µg/mL; for B18 it is 0.143 µg/mL. The figure for B19 is 0.0549 µg/mL; for B20 it is 0.14 µg/mL. As for B21, the “Neutralization IC50 (RSV subtype A)” value is over 25 µg/mL.
